# Data as given in PMC6917645.
# Target: Viperin-Flag (UniProt Q8WXG1)
# Chain of UniProt Q8WXG1 (Q8WXG1 whole entry): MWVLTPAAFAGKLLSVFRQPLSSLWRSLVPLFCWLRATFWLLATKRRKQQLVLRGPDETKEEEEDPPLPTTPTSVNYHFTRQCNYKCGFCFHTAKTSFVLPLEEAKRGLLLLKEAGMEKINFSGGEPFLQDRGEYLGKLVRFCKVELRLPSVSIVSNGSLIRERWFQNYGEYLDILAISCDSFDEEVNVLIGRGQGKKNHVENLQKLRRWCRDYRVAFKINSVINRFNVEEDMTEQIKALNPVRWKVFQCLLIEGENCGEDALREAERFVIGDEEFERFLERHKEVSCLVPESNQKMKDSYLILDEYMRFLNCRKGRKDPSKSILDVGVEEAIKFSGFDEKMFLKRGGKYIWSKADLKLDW
substance,measurement,value
gD-EYFP (from UniProt Q69091 26-394) (natural protein),IRF7/6D-induced IFN-β promoter luciferase activity in HEK293T; gD-EYFP and Viperin-Flag together against gD or viperin alone,2 fold
